B1: W1m4 probe (dsDNA)
DNA 1: TCAAAATCAAGGACACATGGTCTGACCATCTCCTCTCCTCCTCTTCTTCTCCATCTTCTAATTTTTTCAACGGTCAAACTT
DNA 2: AAGTTTGACCGTTGAAAAAATTAGAAGATGGAGAAGAAGAGGAGGAGAGGAGATGGTCAGACCATGTGTCCTTGATTTTGA
B2: W1m3 probe (dsDNA)
DNA 1: TCAAAGGCAAGGACACATGGTCTGACCATCTCCTCTCCTCCTCTTCTTCTCCATCTTCTAATTTTTTCAACGGTCAAACTT
DNA 2: AAGTTTGACCGTTGAAAAAATTAGAAGATGGAGAAGAAGAGGAGGAGAGGAGATGGTCAGACCATGTGTCCTTGCCTTTGA
B3: W1m2 probe (dsDNA)
DNA 1: TCAAAGTGAAGGACACATGGTCTGACCATCTCCTCTCCTCCTCTTCTTCTCCATCTTCTAATTTTTTCAACGGTCAAACTT
DNA 2: AAGTTTGACCGTTGAAAAAATTAGAAGATGGAGAAGAAGAGGAGGAGAGGAGATGGTCAGACCATGTGTCCTTCACTTTGA
B4: W1m5 probe (dsDNA)
DNA 1: TCAACCCGGGGGACACATGGTCTGACCATCTCCTCTCCTCCTCTTCTTCTCCATCTTCTAATTTTTTCAACGGTCAAACTT
DNA 2: AAGTTTGACCGTTGAAAAAATTAGAAGATGGAGAAGAAGAGGAGGAGAGGAGATGGTCAGACCATGTGTCCCCCGGGTTGA
B5: W1m1 probe (dsDNA)
DNA 1: TCAAAGTCTAGGACACATGGTCTGACCATCTCCTCTCCTCCTCTTCTTCTCCATCTTCTAATTTTTTCAACGGTCAAACTT
DNA 2: AAGTTTGACCGTTGAAAAAATTAGAAGATGGAGAAGAAGAGGAGGAGAGGAGATGGTCAGACCATGTGTCCTAGACTTTGA
B6: 3x third W-box (W3) (dsDNA)
DNA 1: CAACGGTCAAACTTCAACGGTCAAACTTCAACGGTCAAACTT
DNA 2: AAGTTTGACCGTTGAAGTTTGACCGTTGAAGTTTGACCGTTG
B7: 3x second W-box (W2) (dsDNA)
DNA 1: TGGTCTGACCATCTTGGTCTGACCATCTTGGTCTGACCATCT
DNA 2: AGATGGTCAGACCAAGATGGTCAGACCAAGATGGTCAGACCA
B8: 3x first W-box (W1) (dsDNA)
DNA 1: TCAAAGTCAAGGACTCAAAGTCAAGGACTCAAAGTCAAGGAC
DNA 2: GTCCTTGACTTTGAGTCCTTGACTTTGAGTCCTTGACTTTGA
B9: Mt probe (three W-boxes mutated) (dsDNA)
DNA 1: TCAACCCGGGGGACACATGGTCCCGGGATCTCCTCTCCTCCTCTTCTTCTCCATCTTCTAATTTTTTCAACCCCGGGACTT
DNA 2: AAGTCCCGGGGTTGAAAAAATTAGAAGATGGAGAAGAAGAGGAGGAGAGGAGATCCCGGGACCATGTGTCCCCCGGGTTGA
B10: W-box probe (Fig 12b) (dsDNA)
DNA 1: TCAAAGTCAAGGACACATGGTCTGACCATCTCCTCTCCTCCTCTTCTTCTCCATCTTCTAATTTTTTCAACGGTCAAACTT
DNA 2: AAGTTTGACCGTTGAAAAAATTAGAAGATGGAGAAGAAGAGGAGGAGAGGAGATGGTCAGACCATGTGTCCTTGACTTTGA
B11: 33probe (WT) (dsDNA)
DNA 1: TCAAAGTCAAGGACACATGGTCTGACCATCTCCTCTCCTCCTCTTCTTCTCCATCTTCTAATTTTTTCAACGGTCAAACTT
DNA 2: AAGTTTGACCGTTGAAAAAATTAGAAGATGGAGAAGAAGAGGAGGAGAGGAGATGGTCAGACCATGTGTCCTTGACTTTGA
B12: GCC-box (dsDNA)
DNA 1: CATAAGAGCCGCCACT
DNA 2: AGTGGCGGCTCTTATG

biological target: T1, BnWRKY15 (Brassica napus, UniProt A0A291B474 1-319); assay: EMSA; Beyotime EMSA binding buffer (composition, pH not stated), 40 nM Cy5 DNA probe, room temperature; 6% native PAGE in ice water bath; conditions: protein: recombinant; tags: 6xHis (pET-32a fusion); label: Cy5
T1 sequence (A0A291B474 entry or part of it): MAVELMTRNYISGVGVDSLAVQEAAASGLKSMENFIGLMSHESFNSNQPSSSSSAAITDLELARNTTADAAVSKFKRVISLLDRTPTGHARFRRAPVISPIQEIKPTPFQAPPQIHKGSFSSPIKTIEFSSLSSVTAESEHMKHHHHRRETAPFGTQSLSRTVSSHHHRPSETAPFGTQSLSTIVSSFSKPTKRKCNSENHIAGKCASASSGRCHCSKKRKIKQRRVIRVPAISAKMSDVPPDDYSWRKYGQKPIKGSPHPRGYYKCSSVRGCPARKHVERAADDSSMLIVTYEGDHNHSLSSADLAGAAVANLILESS

Question: Does B1 bind?
Answer: binds

Question: Does B2 bind?
Answer: binds

Question: Does B3 bind?
Answer: binds

Question: Does B4 bind?
Answer: binds

Question: Does B5 bind?
Answer: binds

Question: Does B6 bind?
Answer: binds

Question: Does B7 bind?
Answer: binds

Question: Does B8 bind?
Answer: binds

Question: Does B9 bind?
Answer: no binding

biological target: T1, BnWRKY15; assay: EMSA; alone; also outcompetes equal BnWRKY33; Beyotime EMSA binding buffer (composition, pH not stated), 40 nM Cy5 DNA probe, room temperature; 6% native PAGE in ice water bath; conditions: protein: recombinant; tags: 6xHis (pET-32a fusion); label: Cy5

Question: Does B10 bind?
Answer: binds

biological target: T1, BnWRKY15; assay: EMSA; competed by unlabelled 33probe (12.5x, 25x); Beyotime EMSA binding buffer (composition, pH not stated), 40 nM Cy5 DNA probe, room temperature; 6% native PAGE in ice water bath; conditions: protein: recombinant; tags: 6xHis (pET-32a fusion); label: Cy5

Question: Does B11 bind?
Answer: binds

biological target: T1, BnWRKY15; assay: competition; unlabelled competitor against Cy5-33probe; Beyotime EMSA binding buffer (composition, pH not stated), 40 nM Cy5 DNA probe, room temperature; 6% native PAGE in ice water bath; conditions: protein: recombinant; tags: 6xHis (pET-32a fusion); label: unlabelled

Question: Does B12 bind?
Answer: no binding
